The values below come from PMC13012646.

Where only a bound is given, the exact number is not on record here.

For this experiment, the target named is human kallikrein 7 variant hK7-2.7 (human) (UniProt P49862).
UniProt P49862, sequence (P49862 30-253 Q52R/N119S/K129G/V157G/L189Q/Q228R/G233V): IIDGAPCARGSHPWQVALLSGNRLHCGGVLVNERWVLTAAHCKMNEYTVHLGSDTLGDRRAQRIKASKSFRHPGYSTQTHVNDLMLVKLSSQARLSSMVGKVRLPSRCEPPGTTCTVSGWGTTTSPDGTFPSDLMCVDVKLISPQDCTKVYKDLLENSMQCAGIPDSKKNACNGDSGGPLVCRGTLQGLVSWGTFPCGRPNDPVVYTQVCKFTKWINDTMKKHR

For “lympho-epithelial Kazal-type related inhibitor (LEKTI) fragment consisting of domains 10–15 (domain or fragment)”, the inhibition of Aβ8 FRET reporter cleavage (5 nM protease, 200 nM substrate, 37°C) is above 130 nM.
